{"source": "patent US20190324022", "about": "“METHODS AND SYSTEMS FOR IDENTIFYING CANDIDATE NUCLEIC ACID AGENT” (APTITUDE MEDICAL SYSTEMS, INC., published 2019)", "key": {"TNF-alpha [1]": {"target": "T1, TNF-alpha (Homo sapiens, UniProt P01375 P01375:77-233)", "T1 sequence (P01375 77-233, one chain of several)": "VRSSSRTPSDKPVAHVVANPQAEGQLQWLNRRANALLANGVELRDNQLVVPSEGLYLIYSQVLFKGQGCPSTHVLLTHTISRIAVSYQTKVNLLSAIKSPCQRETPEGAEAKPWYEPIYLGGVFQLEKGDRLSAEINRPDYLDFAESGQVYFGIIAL", "test": "flow; PBSMCT buffer, room temperature, 3 h", "settings": "tags: biotinylated; R&D Systems; chain copies: 3 (inferred)", "procedure": "(§1) MyOne carboxylic acid magnetic particles were coated with amino-modified candidate nucleic acid agents S01, B01, or VR11 (a previously published TNF-α candidate nucleic acid agent), or with mAb11 antibody (a commercial TNF-α antibody). […] The unbound TNF-α was washed away with PBSMCT, after which streptavidin-conjugated Alexa Fluor 488 was introduced and incubated for 15 minutes to label the bound TNF-α. The particles were washed with PBSMCT and median fluorescence intensities were quantified via FACS.\n(§2) Sequences and relative affinities of all candidate nucleic acid agents are shown in the methods above."}, "[2]": {"target": "NGAL (Neutrophil Gelatinase-Associated Lipocalin) (Homo sapiens, UniProt P80188 P80188:21-198)", "sequence (P80188 21-198, one chain of several)": "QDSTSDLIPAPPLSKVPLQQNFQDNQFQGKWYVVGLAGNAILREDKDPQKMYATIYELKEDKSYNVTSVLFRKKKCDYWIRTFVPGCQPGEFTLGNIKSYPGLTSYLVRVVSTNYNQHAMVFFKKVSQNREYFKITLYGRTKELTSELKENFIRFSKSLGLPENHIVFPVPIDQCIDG", "test": "flow; PBSMCT buffer; 1.28 nM in 10% human serum", "settings": "tags: His-Tag; R&D Systems"}, "[3]": {"target": "T2, HRP-2 (Histidine-Rich Protein 2) (UniProt P05227 P05227:22-332)", "T2 sequence": "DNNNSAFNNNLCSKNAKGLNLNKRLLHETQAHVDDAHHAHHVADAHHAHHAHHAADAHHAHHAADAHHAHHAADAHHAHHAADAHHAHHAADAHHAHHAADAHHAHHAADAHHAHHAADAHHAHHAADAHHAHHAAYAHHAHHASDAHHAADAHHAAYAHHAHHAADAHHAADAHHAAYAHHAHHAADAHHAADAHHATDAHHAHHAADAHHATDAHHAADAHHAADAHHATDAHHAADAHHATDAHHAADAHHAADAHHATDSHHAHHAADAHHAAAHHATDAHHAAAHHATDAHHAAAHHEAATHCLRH", "test": "flow; PBSMCT buffer; 0.124 nM in 10% human serum", "settings": "tags: His-Tag; Fitzgerald Industries International"}, "TNF-alpha [4]": {"target": "T1, TNF-alpha", "test": "flow; PBSMCT buffer (2.5 mM MgCl2, 1 mM CaCl2), room temperature, 3 h; 0.27 nM in serum", "settings": "tags: biotinylated; R&D Systems; chain copies: 3 (inferred)", "procedure": "as §1, §2"}}, "data": [{"binder": "B01 (ssDNA, 5'-amino, coupled to magnetic particles) DNA: ATCCAGAGTGACGCAGCAGGTTAAGGTGTAGGTCCGGGTGGGGGGGTGGGTTGGGGGACTGGTGGACACGGTGGCTTAGT", "values": [{"measurement": "Kd", "setting": "TNF-alpha [1]", "result": 0.35, "unit": "nM"}]}, {"binder": "NGAL-05 (ssDNA, immobilized on magnetic particles) DNA: GAATTCCGCCCTCGTCCCATCTCGGCTTGGTATGGCGGAGCTGGATAGTATAGTCGGAACACCAACCGAGAACGGAATTC", "values": [{"measurement": "Kd", "setting": "[2]", "result": 0.92, "unit": "nM"}]}, {"binder": "HRP-2-702 (ssDNA, immobilized on magnetic particles) DNA: ATCCAGAGTGACGCAGCATTAAATAGGGGTTTGGCTTTGGGTCTGGCATATAGGAACAAGTTTGGACACGGTGGCTTAGT", "values": [{"measurement": "Kd", "setting": "[3]", "result": 0.128, "unit": "nM"}]}, {"binder": "S01 (ssDNA, 5'-amino, coupled to magnetic particles) DNA: ATCCAGAGTGACGCAGCATGCTTAAGGGGGGGGCGGGTTAAGGGAGTGGGGAGGGAGCTGGTGTGGACACGGTGGCTTAGT", "values": [{"measurement": "Kd", "setting": "TNF-alpha [4]", "result": 0.19, "unit": "nM"}]}]}
